How the values were obtained:
[1] = target: T1, HLA-A*02:01 molecule (HLA-A*02:01 gene product) (human); experiment: flow cytometry, T2 cells + purified b2m, peptide dilution series, BB7.2 staining
T1 construct: MHC class I on T2 cells with added purified b2m
Description: (§1) Thereafter, the amount of fluorescence per cell was measured using a flow cytometer, and a dissociation constant Kd value was calculated using a method that was reported in a paper (Udaka et al., Immunogenetics, 51, 816-828, 2000) by the inventors of the present invention.

[2] = target: T2, HLA-A*02:06 molecule (HLA-A*02:06 gene product) (human); experiment: flow cytometry, RA2.6 cells (RMAS + HLA-A*02:06), peptide dilution series, BB7.2 staining
T2 construct: whole, on cells; MHC class I on RA2.6 cells (mouse RMAS transfected with HLA-A*02:06); The light chain is not described
Description: Thereafter, the cells were cultured at 35° C. for 4 hours. […] A fluorescently labeled monoclonal antibody BB7.2, which specifically recognizes a peptide-binding HLA-A*02:06 molecule, was added thereto, incubation was carried out on ice for 20 minutes, and thus the cells were stained.
as §1

[3] = target: T3, HLA-A*24:02 molecule (HLA-A*24:02 gene product) (human); experiment: flow cytometry, acid-stripped C1R-A24 cells + purified b2m, peptide dilution series, 17A12 staining
T3 construct: MHC class I on acid-stripped C1R-A24 cells; The endogenous peptide and b2m were removed, then purified b2m was added
Description: First, C1R-A24 cells were exposed to acidic conditions at a pH of 3.3 for 30 seconds, and thus an endogenous peptide that originally binds to the HLA-A*24:02 molecule, and a light chain β2m, which is associated with HLA class-I molecules in common, were dissociated and removed. After neutralization, a purified β2m was added to C1R-A24 cells, and the obtained product was added to a series of dilutions of the peptide and incubated on ice for 4 hours. Staining was carried out using a fluorescently labeled monoclonal antibody 17A12, which recognizes association (MHC-pep) of the three members, that is, a HLA-A*24:02 molecule, a peptide, and β2m, which had reassociated during the incubation.
Thereafter, the MHC-pep count per C1R-A24 cell (proportional to the intensity of fluorescence of the above-mentioned fluorescent antibody) was quantitatively measured using a fluorescence-activated cell sorter FACScan (Becton-Dickinson). A binding-dissociation constant Kd value between the HLA-A*24:02 molecule and the peptide was calculated from the average intensity of fluorescence per cell using a method that was reported in a paper (Udaka et al., Immunogenetics, 51, 816-828, 2000) by the inventors of the present invention.

B1: STGVSFFFL (Seq. ID No. 10) (peptide)
peptide: STGVSFFFL
notes: Only the start position in MUC1 is printed; The end of the range follows from the length of 9 residues
B1 was tested, and the “Data of binding experiment (log Kd)” value [1] was -5.12 log Kd, the “Data of binding experiment (log Kd)” value [2] was -5.21 log Kd and the “Data of binding experiment (log Kd)” value [3] was -5.17 log Kd.

B2: SFFFLSFHI (Seq. ID No. 8) (peptide)
peptide: SFFFLSFHI
notes: as for B1
In the case of B2, the “Data of binding experiment (log Kd)” value [2] is reported as -3.98 log Kd and the “Data of binding experiment (log Kd)” value [3] is reported as -7.07 log Kd.

B3: HHSDTPTTL (Seq. ID No. 7) (peptide)
peptide: HHSDTPTTL
notes: as for B1
B3 was tested, and the “Data of binding experiment (log Kd)” value [3] was -5.87 log Kd.

B4: FSAQSGAGV (Seq. ID No. 12) (peptide)
peptide: FSAQSGAGV
notes: as for B1
B4 was tested, and the “Data of binding experiment (log Kd)” value [1] was -4.74 log Kd and the “Data of binding experiment (log Kd)” value [2] was -5.66 log Kd.

B5: SVPVTRPAL (Seq. ID No. 2) (peptide)
peptide: SVPVTRPAL
notes: as for B1
For B5, the “Data of binding experiment (log Kd)” value [1] was -3.9 log Kd, the “Data of binding experiment (log Kd)” value [2] was -5.63 log Kd and the “Data of binding experiment (log Kd)” value [3] was -7.24 log Kd.

B6: GVPGWGIAL (Seq. ID No. 3) (peptide)
peptide: GVPGWGIAL
notes: as for B1
With B6 the “Data of binding experiment (log Kd)” value [1] was -4.55 log Kd, the “Data of binding experiment (log Kd)” value [2] was -5.76 log Kd and the “Data of binding experiment (log Kd)” value [3] was -5.93 log Kd.

B7: FLGLSNIKF (Seq. ID No. 1) (peptide)
peptide: FLGLSNIKF
notes: as for B1
B7 was tested, and the “Data of binding experiment (log Kd)” value [1] was -5.39 log Kd, the “Data of binding experiment (log Kd)” value [2] was -4.39 log Kd and the “Data of binding experiment (log Kd)” value [3] was -7.07 log Kd.

B8: GQDVTSVPV (Seq. ID No. 11) (peptide)
peptide: GQDVTSVPV
notes: as for B1
In the case of B8, the “Data of binding experiment (log Kd)” value [1] is reported as -6.44 log Kd and the “Data of binding experiment (log Kd)” value [2] is reported as -6.35 log Kd.

B9: LQRDISEMF (Seq. ID No. 6) (peptide)
peptide: LQRDISEMF
notes: as for B1
For B9, the “Data of binding experiment (log Kd)” value [2] was -4.26 log Kd and the “Data of binding experiment (log Kd)” value [3] was -6.65 log Kd.

B10: AFREGTINV (Seq. ID No. 4) (peptide)
peptide: AFREGTINV
notes: as for B1
With B10 the “Data of binding experiment (log Kd)” value [3] was -5.83 log Kd.

B11: AASRYNLTI (Seq. ID No. 5) (peptide)
peptide: AASRYNLTI
notes: as for B1
B11 was tested, and the “Data of binding experiment (log Kd)” value [1] was -4.81 log Kd, the “Data of binding experiment (log Kd)” value [2] was -3.82 log Kd and the “Data of binding experiment (log Kd)” value [3] was -6.15 log Kd.

B12: TLAFREGTI (Seq. ID No. 9) (peptide)
peptide: TLAFREGTI
notes: as for B1
In the case of B12, the “Data of binding experiment (log Kd)” value [2] is reported as -3.09 log Kd and the “Data of binding experiment (log Kd)” value [3] is reported as -5.97 log Kd.

— patent US20200181195A1 (NEC, published 2020)
